In patent US6429305:

Biological target: growth hormone receptor on ZFL cells (zebrafish liver cell line) (zebrafish)
Experiment: cell-based or functional assay

increase in cell proliferation relative to no growth hormone added (MTS-formazan conversion assay, ZFL cells): 13.7%
Substance: human growth hormone (from UniProt P01241 27-217) (ligand)
